One block for each binder: values may come before it.
Assays:
[1] = molecular target: T1, CSC with GFP-tagged Vps29 (CSC-GFP) (S. cerevisiae, UniProt P34110;P40335;P38759); experiment: recruitment to giant unilamellar vesicles
[2] = molecular target: T2, Vps5 with C-terminal TAP tag (S. cerevisiae, UniProt Q92331 1-675); experiment: tandem affinity purification
T2 sequence: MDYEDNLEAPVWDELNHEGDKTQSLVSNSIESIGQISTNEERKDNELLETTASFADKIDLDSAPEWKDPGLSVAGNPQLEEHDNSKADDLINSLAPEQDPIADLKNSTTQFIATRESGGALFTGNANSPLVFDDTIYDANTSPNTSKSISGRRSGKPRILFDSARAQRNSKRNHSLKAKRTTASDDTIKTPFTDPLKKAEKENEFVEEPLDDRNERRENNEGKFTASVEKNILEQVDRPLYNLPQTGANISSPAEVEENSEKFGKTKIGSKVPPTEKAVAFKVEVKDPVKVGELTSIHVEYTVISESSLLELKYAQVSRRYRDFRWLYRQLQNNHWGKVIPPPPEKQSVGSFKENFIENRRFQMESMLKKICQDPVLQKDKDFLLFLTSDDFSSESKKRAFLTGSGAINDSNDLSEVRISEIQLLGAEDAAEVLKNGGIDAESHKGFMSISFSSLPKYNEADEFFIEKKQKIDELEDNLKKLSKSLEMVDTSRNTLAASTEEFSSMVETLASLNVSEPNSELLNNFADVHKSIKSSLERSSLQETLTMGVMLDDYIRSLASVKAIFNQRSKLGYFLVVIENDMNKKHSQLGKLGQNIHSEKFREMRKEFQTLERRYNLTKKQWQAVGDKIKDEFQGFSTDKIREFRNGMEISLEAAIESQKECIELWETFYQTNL

[3] = molecular target: cargo selection complex (CSC; Vps35, Vps26, Vps29) (S. cerevisiae, UniProt P34110;P40335;P38759); experiment: pull-down
[4] = molecular target: T1, CSC with GFP-tagged Vps29 (CSC-GFP); experiment: pull-down
[5] = molecular target: T3, Vps35 with C-terminal TAP tag (S. cerevisiae, UniProt P34110 1-944); experiment: tandem affinity purification
T3 sequence: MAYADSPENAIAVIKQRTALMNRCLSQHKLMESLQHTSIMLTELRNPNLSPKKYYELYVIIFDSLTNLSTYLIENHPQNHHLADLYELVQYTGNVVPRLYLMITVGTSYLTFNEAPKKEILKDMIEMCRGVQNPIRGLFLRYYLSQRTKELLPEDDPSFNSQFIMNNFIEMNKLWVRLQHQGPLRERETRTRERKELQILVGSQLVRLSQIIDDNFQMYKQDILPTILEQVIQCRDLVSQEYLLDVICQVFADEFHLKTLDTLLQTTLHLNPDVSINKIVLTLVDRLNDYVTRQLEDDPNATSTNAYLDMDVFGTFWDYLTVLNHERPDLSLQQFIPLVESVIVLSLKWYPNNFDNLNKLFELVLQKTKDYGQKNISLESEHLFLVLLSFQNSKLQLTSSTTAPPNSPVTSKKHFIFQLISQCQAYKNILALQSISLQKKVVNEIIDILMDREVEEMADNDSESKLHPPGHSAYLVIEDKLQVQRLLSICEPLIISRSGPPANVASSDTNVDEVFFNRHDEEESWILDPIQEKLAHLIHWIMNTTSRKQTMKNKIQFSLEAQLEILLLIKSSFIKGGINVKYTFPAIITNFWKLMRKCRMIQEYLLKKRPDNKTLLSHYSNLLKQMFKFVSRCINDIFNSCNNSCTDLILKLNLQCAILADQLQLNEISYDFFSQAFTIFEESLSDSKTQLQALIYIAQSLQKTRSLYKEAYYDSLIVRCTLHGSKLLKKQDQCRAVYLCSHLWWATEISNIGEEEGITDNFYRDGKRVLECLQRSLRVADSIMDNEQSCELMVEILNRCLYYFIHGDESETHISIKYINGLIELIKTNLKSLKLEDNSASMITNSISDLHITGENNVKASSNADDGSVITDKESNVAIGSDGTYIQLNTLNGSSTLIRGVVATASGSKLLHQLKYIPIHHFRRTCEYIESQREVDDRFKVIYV

binding result [1]: binds
B1: SNX-BAR complex (Vps5-Vps17 heterodimer) (complex)
chain 1: T2 sequence
chain 2: MTSAVPYDPYDDLDNNPFAEPQEEDSEPAATTTDGSSSMSEERVGTEQTAASVQDNGTANNIQNGLGEEGNATRSKTSNEHNENQQPSQPSERVILPERSDEKKKYTLLAKVTGLERFGSATGKKENPTIIFDCSTNLPTFRKQQYKNVKKSYEEFHQLFKYLNVAIQESFVPTLPSAYTTFGINSEEDRMKVTRNFQLWFNRLSQDPLIIRNEEVAFFIESDFNTYTPINKSKSLASGLKRKTLKQLAPPYDEITELAEFRPLVKSIYVVSQSLQEKLLRVSRNRKMMVQEENAFGQDFVNLDEHNKLYRRYGKILTAVGDIDSIIATMDMATLYDGLEWIVRDAYAVKEALTNRHFIMRNLVQAQQNSKAKQEQARRFRSRRDINPMKIDEALRQLKAAAKNEQVLTLKLQRITSNMIIERKQWISWYEEWIRSSIKEFTLRKIEYERKKLTLLERVRSDIRKADENGGLSRLGRHAVSNNNSDTSQTLKGDSWTGESNRKSQIPINKIAHTEFDDELFTEDDGYNSQDSDTTSLNARHAASLLGMSTK

binding result [2]: binds
B2: Vps17 (natural protein)
chain: B1 chain 2

binding result [1]: binds
B3: fluorescently labeled Ypt7 without His tag (natural protein)
chain: MSSRKKNILKVIILGDSGVGKTSLMHRYVNDKYSQQYKATIGADFLTKEVTVDGDKVATMQVWDTAGQERFQSLGVAFYRGADCCVLVYDVTNASSFENIKSWRDEFLVHANVNSPETFPFVILGNKIDAEESKKIVSEKSAQELAKSLGDIPLFLTSAKNAINVDTAFEEIARSALQQNQADTEAFEDDYNDAINIRLDGENNSCSC
modifications: fluorescent label: ATTO (legend of Figure 5); DY-647 maleimide derivative (methods)

binding result [3]: binds | binding result [4]: binds
B4: GST-tagged Ypt7 (natural protein)
chain: B3 chain

binding result [5]: binds
B5: Vps26 (natural protein)
chain: MSIFFKPPIDIEILFDNEESRKHVDIATRSSNSSYKSMKESLPVYEDGESLGGIVTLRVRDSKKVDHLGIKVSVIGSIDMLKSHGSGNSSSKKVTSSTSSSSSNGSVDVRKNSVDQFLCQSYDLCPAGELQHSQSFPFLFRDLSKRYESYKGKNVDVAYYVKVTVMRKSTDISKIKRFWVYLYNSVTTAPNTLSANETKATTNDIAGGNYAADNASDNTQTKSTQGEAADVNQVLPISHSNNEPKPVRLDIGIENCLHIEFEYAKSQYSLKEVIVGRIYFLLTRLRIKHMELSLITRESSGLQTSNVMTDSTAIRYEIMDGSSVKGETIPIRLFLSGYDLTPNMSCNYFNVKNYLSLVIIDEDGRRYFKQSEITLYRTR

binding result [1]: binds
B6: cytosolic domain of Vps10 (residues 1415-1579), His-tagged (domain or fragment)
chain: YDRGIRRNGGFARFGEIRLGDDGLIENNNTDRVVNNIVKSGFYVFSNIGSLLQHTKTNIAHAISKIRGRFGNRTGPSYSSLIHDQFLDEADDLLAGHDEDANDLSSFMDQGSNFEIEEDDVPTLEEEHTSYTDQPTTTDVPDTLPEGNEENIDRPDSTAPSNENQ
modifications: Cy5 label (Cyc-5 amine derivative) in Figures 3 and 4

binding result [5]: binds
B7: Vps29 (natural protein)
chain: MLLLALSDAHIPDRATDLPVKFKKLLSVPDKISQVALLGNSTKSYDFLKFVNQISNNITIVRGEFDNGHLPSTKKDKASDNSRPMEEIPMNSIIRQGALKIGCCSGYTVVPKNDPLSLLALARQLDVDILLWGGTHNVEAYTLEGKFFVNPGSCTGAFNTDWPIVFDVEDSDEAVTSEVDKPTKENQSEDDDAKGGSTGKEQPGSYTPKEGTAGERENENESNVKPENQFKEDEVDMSDSDINGSNSPSFCLLDIQGNTCTLYIYLYVNGEVKVDKVVYEKE
